In publication PMC10326445, “Affinity-enhanced RNA-binding domains as tools to understand RNA recognition” one finds binding signal and Kd data, which are given here for four molecules.

Series [1] concerns the target FMRP RNA-AE (KH1 GKKG / KH2 RNA-KO, KH1-2 di-domain) (human (hFMRP), UniProt Q06787 216-425, T236K;H237K;K299D;N300D;del331-396). Description: NMR titration; Kd value only in figure; NMR titrations: 50 uM 15N-protein, 10 mM phosphate pH 6.9, 40 mM NaCl, 0.5 mM TCEP, protein:RNA 1:0 to 1:12; temperature not given. Particulars: protein: recombinant; tags: N-terminal 6xHis, cleaved with HRV 3C; single strand.

Series [2] addresses FMRP RNA-WT (KH1 WT / KH2 RNA-KO, KH1-2 di-domain) (human (hFMRP), UniProt Q06787 216-425, K299D;N300D;del331-396). Description: NMR titration; unit prefix lost in text (printed M), uM inferred; NMR titrations: 50 uM 15N-protein, 10 mM phosphate pH 6.9, 40 mM NaCl, 0.5 mM TCEP, protein:RNA 1:0 to 1:12; temperature not given. Particulars: protein: recombinant; tags: N-terminal 6xHis, cleaved with HRV 3C; single strand.

With GAGAC (ssRNA), in series [1], the binding signal is approximately 3 fold tighter than GAGCC. Consider UGGAC (ssRNA), for which the Kd in series [2] was found to be 418 ± 57.9 µM. For GAGCC (ssRNA), in series [1], the binding signal is approximately 3 fold weaker than GAGAC. On the same count and under the same terms, under UAGAC (ssRNA) stands 2.5 fold weaker than UGGAC.
